Source: the Human Domainome abundance scans (Beltran et al. 2025)
± gives the uncertainty stated by the source.

B1: Tripartite motif-containing protein 44, residues 174 to 218; numbered along this chain, Q96DX7 (parent)
chain: VAKRKCPDHGLDLSTYCQEDRQLICVLCPVIGAHQGHQLSTLDEA
B2: RanBP-type and C3HC4-type zinc finger-containing protein 1, residues 369 to 411; numbered along this chain, Q9BYM8 (parent)
chain: YHCKTPDCKGWCFFEDDVNEFTCPVCFHVNCLLCKAIHEQMNC

Variants of: B1
Experiment: abundance fitness (aPCA) (normalised: wild type 0, dead -1); higher = more abundant; growth selection in yeast, the domain comes from the species named
Settings: Homo sapiens
With VAKRACPDHGLDLSTYCQEDRQLICVLCPVIGAHQGHQLSTLDEA [K5A] the abundance fitness was -0.235 ± 0.027. Variant VAKRSCPDHGLDLSTYCQEDRQLICVLCPVIGAHQGHQLSTLDEA [K5S] has an abundance fitness of -0.125 ± 0.031. VAKRDCPDHGLDLSTYCQEDRQLICVLCPVIGAHQGHQLSTLDEA [K5D] showed an abundance fitness of -0.409 ± 0.04. In the case of VAKRVCPDHGLDLSTYCQEDRQLICVLCPVIGAHQGHQLSTLDEA [K5V], the abundance fitness is reported as -0.135 ± 0.028. VAKRYCPDHGLDLSTYCQEDRQLICVLCPVIGAHQGHQLSTLDEA [K5Y] gave an abundance fitness of -0.221 ± 0.06. For VAKRGCPDHGLDLSTYCQEDRQLICVLCPVIGAHQGHQLSTLDEA [K5G], the abundance fitness was -0.218 ± 0.025. Work on VAKRTCPDHGLDLSTYCQEDRQLICVLCPVIGAHQGHQLSTLDEA [K5T] yielded an abundance fitness of -0.115 ± 0.031. Variant VAKRRCPDHGLDLSTYCQEDRQLICVLCPVIGAHQGHQLSTLDEA [K5R] has an abundance fitness of -0.159 ± 0.027. Variant VAKRQCPDHGLDLSTYCQEDRQLICVLCPVIGAHQGHQLSTLDEA [K5Q] has an abundance fitness of -0.163 ± 0.032. In the case of VAKRFCPDHGLDLSTYCQEDRQLICVLCPVIGAHQGHQLSTLDEA [K5F], the abundance fitness is reported as -0.129 ± 0.052. For VAKRNCPDHGLDLSTYCQEDRQLICVLCPVIGAHQGHQLSTLDEA [K5N], the abundance fitness was -0.111 ± 0.07. With VAKRCCPDHGLDLSTYCQEDRQLICVLCPVIGAHQGHQLSTLDEA [K5C] the abundance fitness was -0.141 ± 0.036. Variant VAKRICPDHGLDLSTYCQEDRQLICVLCPVIGAHQGHQLSTLDEA [K5I] has an abundance fitness of -0.198 ± 0.16. For VFKRKCPDHGLDLSTYCQEDRQLICVLCPVIGAHQGHQLSTLDEA [A2F], the abundance fitness was 0.009 ± 0.065. With VEKRKCPDHGLDLSTYCQEDRQLICVLCPVIGAHQGHQLSTLDEA [A2E] the abundance fitness was 0.087 ± 0.031. With VVKRKCPDHGLDLSTYCQEDRQLICVLCPVIGAHQGHQLSTLDEA [A2V] the abundance fitness was -0.037 ± 0.028. With VHKRKCPDHGLDLSTYCQEDRQLICVLCPVIGAHQGHQLSTLDEA [A2H] the abundance fitness was 0.03 ± 0.044. VYKRKCPDHGLDLSTYCQEDRQLICVLCPVIGAHQGHQLSTLDEA [A2Y] showed an abundance fitness of -0.027 ± 0.059. With VGKRKCPDHGLDLSTYCQEDRQLICVLCPVIGAHQGHQLSTLDEA [A2G] the abundance fitness was -0.04 ± 0.027. Work on VLKRKCPDHGLDLSTYCQEDRQLICVLCPVIGAHQGHQLSTLDEA [A2L] yielded an abundance fitness of -0.031 ± 0.032. Work on VIKRKCPDHGLDLSTYCQEDRQLICVLCPVIGAHQGHQLSTLDEA [A2I] yielded an abundance fitness of 0.041 ± 0.039. Work on VNKRKCPDHGLDLSTYCQEDRQLICVLCPVIGAHQGHQLSTLDEA [A2N] yielded an abundance fitness of 0.096 ± 0.062. VMKRKCPDHGLDLSTYCQEDRQLICVLCPVIGAHQGHQLSTLDEA [A2M] gave an abundance fitness of -0.009 ± 0.041. In the case of VSKRKCPDHGLDLSTYCQEDRQLICVLCPVIGAHQGHQLSTLDEA [A2S], the abundance fitness is reported as 0.045 ± 0.033. VDKRKCPDHGLDLSTYCQEDRQLICVLCPVIGAHQGHQLSTLDEA [A2D] showed an abundance fitness of 0.053 ± 0.03. VCKRKCPDHGLDLSTYCQEDRQLICVLCPVIGAHQGHQLSTLDEA [A2C] gave an abundance fitness of 0.04 ± 0.041. Variant VPKRKCPDHGLDLSTYCQEDRQLICVLCPVIGAHQGHQLSTLDEA [A2P] has an abundance fitness of -0.088 ± 0.04. VRKRKCPDHGLDLSTYCQEDRQLICVLCPVIGAHQGHQLSTLDEA [A2R] showed an abundance fitness of -0.12 ± 0.029. Variant VTKRKCPDHGLDLSTYCQEDRQLICVLCPVIGAHQGHQLSTLDEA [A2T] has an abundance fitness of 0.12 ± 0.039. VAKRKDPDHGLDLSTYCQEDRQLICVLCPVIGAHQGHQLSTLDEA [C6D] showed an abundance fitness of -0.701 ± 0.076. With VAKRKEPDHGLDLSTYCQEDRQLICVLCPVIGAHQGHQLSTLDEA [C6E] the abundance fitness was -0.946 ± 0.087. Variant VAKRKAPDHGLDLSTYCQEDRQLICVLCPVIGAHQGHQLSTLDEA [C6A] has an abundance fitness of -1.05 ± 0.064.

Variants of: B2
Experiment: as above
Settings: Homo sapiens
In the case of YHCKTPDCKGWCFFEDDVNEFTCPVCFHVNCLLCKAIHEQMNP [C43P], the abundance fitness is reported as -0.211 ± 0.089. With YHCKTPDCKGWCFFEDDVNEFTCPVCFHVNCLLCKAIHEQMNK [C43K] the abundance fitness was -0.37 ± 0.074. For YHCKTPDCKGWCFFEDDVNEFTCPVCFHVNCLLCKAIHEQMNH [C43H], the abundance fitness was -0.23 ± 0.12. Variant YHCKTPDCKGWCFFEDDVNEFTCPVCFHVNCLLCKAIHEQMNT [C43T] has an abundance fitness of -0.216 ± 0.089. With YHCKTPDCKGWCFFEDDVNEFTCPVCFHVNCLLCKAIHEQMNG [C43G] the abundance fitness was -0.29 ± 0.057. With YHCKTPDCKGWCFFEDDVNEFTCPVCFHVNCLLCKAIHEQMNI [C43I] the abundance fitness was -0.511 ± 0.11. In the case of YHCKTPDCKGWCFFEDDVNEFTCPVCFHVNCLLCKAIHEQMNM [C43M], the abundance fitness is reported as -0.507 ± 0.43. With YHCKTPDCKGWCFFEDDVNEFTCPVCFHVNCLLCKAIHEQMNA [C43A] the abundance fitness was -0.372 ± 0.076. Work on YHCKTPDCKGWCFFEDDVNEFTCPVCFHVNCLLCKAIHEQMNV [C43V] yielded an abundance fitness of -0.396 ± 0.071. In the case of YHCKTPDCKGWCFFEDDVNEFTCPVCFHVNCLLCKAIHEQMNQ [C43Q], the abundance fitness is reported as -0.357 ± 0.074. YHCKTPDCKGWCFFEDDVNEFTCPVCFHVNCLLCKAIHEQMNS [C43S] showed an abundance fitness of -0.312 ± 0.055. YHCKTPDCKGWCFFEDDVNEFTCPVCFHVNCLLCKAIHEQMNN [C43N] showed an abundance fitness of -0.511 ± 0.15. Variant YHCKTPDCKGWCFFEDDVNEFTCPVCFHVNCLLCKAIHEQMNR [C43R] has an abundance fitness of -0.323 ± 0.045. Work on YHCKTPDCKGWCFFEDDVNEFTCPVCFHVNCLLCKAIHEQMNY [C43Y] yielded an abundance fitness of -0.424 ± 0.12. In the case of YHCKTPDCKGWCFFEDDVNEFTCPVCFHVNCLLCKAIHEQMNE [C43E], the abundance fitness is reported as -0.427 ± 0.15. With YHCKTPDCKGWCFFEDDVNEFTCPVCFHVNCLLCKAIHEQMKC [N42K] the abundance fitness was -0.064 ± 0.05. In the case of YHCKTPDCKGWCFFEDDVNEFTCPVCFHVNCLLCKAIHEQMVC [N42V], the abundance fitness is reported as -0.141 ± 0.062. For YHCKTPDCKGWCFFEDDVNEFTCPVCFHVNCLLCKAIHEQMTC [N42T], the abundance fitness was 0.069 ± 0.063. Variant YHCKTPDCKGWCFFEDDVNEFTCPVCFHVNCLLCKAIHEQMWC [N42W] has an abundance fitness of -0.069 ± 0.085. YHCKTPDCKGWCFFEDDVNEFTCPVCFHVNCLLCKAIHEQMPC [N42P] showed an abundance fitness of 0.219 ± 0.058. YHCKTPDCKGWCFFEDDVNEFTCPVCFHVNCLLCKAIHEQMQC [N42Q] showed an abundance fitness of 0.304 ± 0.099. With YHCKTPDCKGWCFFEDDVNEFTCPVCFHVNCLLCKAIHEQMLC [N42L] the abundance fitness was -0.196 ± 0.056. Variant YHCKTPDCKGWCFFEDDVNEFTCPVCFHVNCLLCKAIHEQMMC [N42M] has an abundance fitness of -0.101 ± 0.06. Work on YHCKTPDCKGWCFFEDDVNEFTCPVCFHVNCLLCKAIHEQMSC [N42S] yielded an abundance fitness of 0.006 ± 0.042. Variant YHCKTPDCKGWCFFEDDVNEFTCPVCFHVNCLLCKAIHEQMRC [N42R] has an abundance fitness of -0.008 ± 0.046. Work on YHCKTPDCKGWCFFEDDVNEFTCPVCFHVNCLLCKAIHEQMYC [N42Y] yielded an abundance fitness of -0.122 ± 0.14.
